Biological target: A/Solomon Islands/3/2006 (H1N1) HA (influenza A virus A/Solomon Islands/3/2006 (H1N1))
Test: cryo-EM structure

“A/Solomon Islands/3/2006 (H1N1) HA (natural protein)” was tested. Which stoichiometry N did it give?
Its stoichiometry N is 3.
